Laboratory results taken from patent publication US20250228937A1, “MEDICAMENT FOR TREATMENT AND/OR PREVENTION OF CANCER” (TORAY INDUSTRIES, INC., priority 2021, published 2025).
Residue numbers refer to the chain shown, from its start.

B1: anti-CAPRIN-1 antibody (o) (antibody, V domains shown)
VH: EVQLHQFGAELVKPGASVKISCKASGYTFTDYNMDWVKQSHGKSLEWIGDINPNYDSTSYNQKFKGKATLTVDKSSSTAYMELRSLTSEDTAVYYCARSRSYDYEGFAYWGQGTLVTVSA
VL: DIQMTQSPASLSASVGETVTITCRASGNIHNYLAWYQQKQGKSPQLLVYNAKTLADGVPSRFSGSGSGTQYSLKINSLQPEDFGSYYCQHFWSTLTFGAGTKLELKR
B2: anti-CAPRIN-1 antibody (e) (antibody, V domains shown)
VH: AVTLDESGGGLQTPGGALSLVCKASGFTFSGYDMLWVRQAPGKGLEWVAGIGSTGGGTDYGAAVKGRATISRDNGQSTVRLQLNNLRAEDTATYYCAKVAGGCNSGYCRDSPGSIDAWGHGTEVIVS
VL: AVTQQPASVSANPGETVKITCSGGGSRNYYGWYQQKSPGSVPVTVIYYDDQRPSNIPSRFSGALSGSTSTLTITGVQADDEAVYFCGSADSNTYEGSFGAGTTLTVL
B3: anti-CAPRIN-1 antibody (c) (antibody, V domains shown)
VH: AVTLDESGGGLQTPGGGLSLVCKASGFTFSSFDMGWVRQAPGKGLEFVAQINDAGSRTWYATAVKGRATISRDNGQTTVRLQLNNLRAEDTGTYYCTRGSGYVGAGAIDAWGHGTEVIVS
VL: AALTQPSSVSANPGETVKITCSGGSGYYGWYQQQKSPGSAPVTVIYQNDKRPSDIPSRFSGSGSGSTNTLTITGVQAEDEAVYFCGRYDSTDSGIFGAGTTLTVL
B4: anti-CAPRIN-1 antibody (a) (antibody, V domains shown)
VH: AVTLDESGGGLQMSRGGLSLVCKASGFDFSSYQMNWIRQAPGKGLEFVAAINKFGNSTGHGAAVKGRVTISRDNGQSTVRLQLNNLRAEDTAIYFCTKHAYGYCGSGTWCAAGEIDAWGHGTEVIVSS
VL: QAASTQPSSVSANPGETVEITCSGGGSYSYGWFQQKSPGSAPVTVIYYNNKRPSDIPSRFSGSKSGSTGTLTITGVQADDEAVYYCGSGDSTDTAVFGAGTTLTVLG
B5: anti-CAPRIN-1 antibody (z) (antibody, V domains shown)
VH: GPDLVKPGASVKISCKASGYSFTAYYMHWVKQSHGKSLEWIGRVNPNNGGTTYNQKFKGKAILTVDKSSSTAYMELRSLTFEDSAVYYCARRIYYGYFDYWGQGTTVTVSS
VL: AFFAVSLGQRATISCKASQSVDYDGDSYMNWYQQKPGQPPKLLIYVASNLESGVPARFSGSGSGTDFTLNIHPVEEEDAATYYCQQSNEDPYTFGGGTKLEIKQ
B6: anti-CAPRIN-1 antibody (d) (antibody, V domains shown)
VH: QSLEESGGDLVKPGASLTLTCTASGFSFSGSYYMSWVRQAPGKGLEWIAYIYIGDGVTAYANWAKGRFTISKASSTTVTLQMTSLTAADTATYFCARGNKLWGPGTLVTVSS
VL: DVVMTQTPASVEAAVGGTVTIKCQASQSISSYLAWYQQKPGQPPKRLIYDASNLDSGVPSRFKGSGSGTDFTITISDLECADAATYYCQCTAVSSATIYGNAFGGGTEVVVK
B7: anti-CAPRIN-1 antibody (j) (antibody, V domains shown)
VH: DAELVKPGASVKISCKASGYTFTDHSIHWVQQKPEQGLEWIGYISPGNGNIKYNEKFKGKATLTADKSSSTAYMQLNSLTSEDSAVYFCKRSLGRGGPYYFDYWGQGTTVTVSS
VL: DIVLTQAAPSLPVTPGESVSISCRSSKSLLHSNGNTYLYWFLQRPGQSPQLLIYRMSNLASGVPDRFSGSGSGTAFTLRISRVEAEDVGVYYCMQHREYPVTFGSGPN
B8: anti-CAPRIN-1 antibody (af) (antibody, V domains shown)
VH: EVQLVESGGGLVQPGGSLRLSCAASGFSLSSHSLGWVRQAPGKGLEWIGDIRSGGSAYYANWAKGRFTISRDNSKNTLYLQMNSLRAEDTAVYYCTRTNGPSDLTNRLDLWGQGTLVTVSS
VL: QVLTQSPSSLSASVGDRVTINCQASQSLYNNENLAWFQQKPGKVPKRLIYGASTLASGVSSRFSGSGSGTEFTLTISSLQCEDFAIYYCLGEFSCGSADCFAFGGGTKVEIK
B9: anti-CAPRIN-1 antibody (ah) (antibody, V domains shown)
VH: B8 VH
VL: EQVLTQSPSSLSASVGDRVTINCQASQSLYNNENLAWFQQKPGKVPKRLIYGASTLASGVSSRFSGSGSGTEFTLTISNLQPEDFAIYYCLGEFSCGSADCFAFGGGTKVEIK
B10: anti-CAPRIN-1 antibody (b) (antibody, V domains shown)
VH: B8 VH with V2Q, Q3S
VL: B8 VL
B11: anti-CAPRIN-1 antibody (ak) (antibody, V domains shown)
VH: B8 VH with Y94F
VL: B9 VL
B12: anti-CAPRIN-1 antibody (ag) (antibody, V domains shown)
VH: B8 VH with Y94F
VL: B8 VL
B13: anti-CAPRIN-1 antibody (aj) (antibody, V domains shown)
VH: B8 VH
VL: B9 VL with Q2I, I87T
B14: anti-CAPRIN-1 antibody (ai) (antibody, V domains shown)
VH: B8 VH with Y94F
VL: B9 VL with Q2I, I87T
B15: anti-CAPRIN-1 antibody (i) (antibody, V domains shown)
VH: GAELVRSGASVKMSCKASGYSFTDYNMYWVKQTPGQGLEWIGYIYPGNGGTNYNQKFKGKATLTADTSSSTAYMQISSLTSEDSAVYFCARDYDDGGYAMDYWGQGTTVTVSS
VL: DIQMTQSPASLSASVGETVTITCRASGNIHNYLTWYQQKQGKSPQLLVYNAKTLADGVPSRFSGSGSGTQYSLKINRLQPEDFGSYYCQHFWNIPWTFGGGTKLNSR

Tests used:
[1] = tested on: human breast cancer cells BT474; test: In vivo antitumor effect of anti-CAPRIN-1 antibody and topotecan in BT474 cancer-bearing mice; design: species or system NOD-SCID mice; details: day 56 after bearing cancer; for tumor volume, assuming that the tumor volume of the negative control was 100%: topotecan alone, four times
Method: An in vivo antitumor effect in a cancer-bearing mouse by a combined use of the anti-CAPRIN-1 antibody (anti-CAPRIN-1 humanized antibody #1) produced in Example 1 and topotecan was evaluated.
Specifically, the antitumor effect of the combined use of the anti-CAPRIN-1 antibody and topotecan according to the present invention was studied using NOD-SCID mice in which human-derived cancer cells expressing CAPRIN-1 protein were subcutaneously transplanted. Human breast cancer cells BT474 were subcutaneously transplanted at 2×10^7 cells per mouse as a mixture with Matrigel (Sigma) and allowed to grow until a tumor became approximately 154 to 155 mm^3 to prepare cancer-bearing mice. The cancer cells BT474 express CAPRIN-1 protein on cell membrane surfaces, and the anti-CAPRIN-1 antibodies produced in Example 1 were confirmed to react with a portion of CAPRIN-1 present on the cell membrane surfaces. Each anti-CAPRIN-1 antibody produced in Example 1 was administered at 10 mg/kg once a week, four times in total, to the tail veins of eight cancer-bearing mice described above. To the same mice, a low dose (3 mg/kg) or a high dose (10 mg/kg) of topotecan was administered once every four days, four times in total.
For a comparative control group, the same dose of the same anti-CAPRIN-1 antibody as above was administered once a week to cancer-bearing mice. Furthermore, for another comparative control group, a low dose (3 mg/kg) or a high dose (10 mg/kg) of topotecan was administered to other cancer-bearing mouse individuals at the same administration intervals. Cancer-bearing mice in a non-treatment group were used as negative controls. After the start of administration, the sizes of cancers in the cancer-bearing mice were measured over time using calipers. The tumor volume of each individual was calculated according to a standard method using a calculation formula: (Length of the major axis of the tumor)×(Length of the minor axis of the tumor)^2×0.5, and the average of the treated group was calculated.

[2] = platinum-insensitive patient, cited from earlier work
[3] = target: T1, human CAPRIN-1 protein expressed on cell membrane surfaces of human cancer cells (human, UniProt Q14444 2-709); test: flow cytometry on cancer cells expressing CAPRIN-1
T1 construct: whole, on cells; only a portion of CAPRIN-1 is said to be on the membrane surface
T1 sequence (looked up): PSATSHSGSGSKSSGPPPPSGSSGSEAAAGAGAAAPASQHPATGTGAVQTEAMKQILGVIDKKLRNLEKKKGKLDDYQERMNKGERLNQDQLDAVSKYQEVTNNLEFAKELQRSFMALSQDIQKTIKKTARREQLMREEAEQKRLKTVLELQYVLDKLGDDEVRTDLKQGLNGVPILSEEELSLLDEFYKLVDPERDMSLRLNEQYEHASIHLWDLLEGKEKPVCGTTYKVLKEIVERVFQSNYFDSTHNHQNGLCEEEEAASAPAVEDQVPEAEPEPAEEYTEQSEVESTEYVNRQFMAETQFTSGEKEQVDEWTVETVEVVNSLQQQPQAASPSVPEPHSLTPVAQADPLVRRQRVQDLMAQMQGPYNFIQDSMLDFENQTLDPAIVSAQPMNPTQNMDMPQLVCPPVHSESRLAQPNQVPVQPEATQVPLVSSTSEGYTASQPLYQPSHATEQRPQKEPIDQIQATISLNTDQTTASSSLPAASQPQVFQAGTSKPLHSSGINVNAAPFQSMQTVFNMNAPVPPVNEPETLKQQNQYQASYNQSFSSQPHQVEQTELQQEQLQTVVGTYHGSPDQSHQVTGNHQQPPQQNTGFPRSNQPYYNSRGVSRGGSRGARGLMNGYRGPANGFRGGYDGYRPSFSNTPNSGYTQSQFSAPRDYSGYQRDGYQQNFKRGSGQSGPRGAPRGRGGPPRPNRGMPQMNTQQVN

Molecule | binding result [3] | further results
CC[C@@]1(O)C(=O)OCc2c1cc1n(c2=O)Cc2cc3c(CN(C)C)c(O)ccc3nc2-1 [topotecan] |  | tumor volume compared to that at the start of the administration ([1]; antibody 10 mg/kg, topotecan low (3 mg/kg) and high (10 mg/kg) dose): increased; tumor volume, assuming that the tumor volume of the negative control was 100% ([1]; high dose 10 mg/kg once every four days): 16%; tumor volume, assuming that the tumor volume of the negative control was 100% ([1]; low dose 3 mg/kg once every four days): 33%
bevacizumab |  | PFS ([2]; bevacizumab combined with a chemotherapeutic versus monochemotherapy): 6.7 months; OS compared with monochemotherapy ([2]; bevacizumab combined with a chemotherapeutic): no significant difference
B1 | binds | 
B2 | binds | 
B3 | binds | 
B4 | binds | 
B5 | binds | 
B6 | binds | 
B7 | binds | 
B8 | binds | 
B9 | binds | 
B10 | binds | 
B11 | binds | 
B12 | binds | 
B13 | binds | 
B14 | binds | 
B15 | binds | 
